Assay results as given in paper PMC4324353.

Target: latrunculin B bound actin (A. castellani actin monomer) (A. castellani)
Assay: fluorescence polarisation

Kd: 90 nM
Substance: Spir second WH2 domain (SB) (domain or fragment)
